Data taken from publication PMC9352680, “A comprehensive thermodynamic model for RNA binding by the Saccharomyces cerevisiae Pumilio protein PUF4”.

T1: PUF4 RNA-binding domain (Saccharomyces cerevisiae, UniProt P25339 537-888)
T1 sequence: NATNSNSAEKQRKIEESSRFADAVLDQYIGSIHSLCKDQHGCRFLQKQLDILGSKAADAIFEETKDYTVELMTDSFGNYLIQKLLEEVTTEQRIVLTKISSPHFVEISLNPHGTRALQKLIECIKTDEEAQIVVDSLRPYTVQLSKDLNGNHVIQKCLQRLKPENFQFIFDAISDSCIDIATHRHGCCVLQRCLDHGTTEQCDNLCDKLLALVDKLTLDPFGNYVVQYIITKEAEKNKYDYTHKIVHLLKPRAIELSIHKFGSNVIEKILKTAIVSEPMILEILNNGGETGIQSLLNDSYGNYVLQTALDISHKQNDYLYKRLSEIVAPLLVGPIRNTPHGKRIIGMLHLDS


Biological target: T1, PUF4 RNA-binding domain
Experiment: Mg; RNA-MaP; 20 mM Na-HEPES pH 7.4, 30 mM KOAc, 0.75 mM MgCl2, 0.1% Tween-20, 5% glycerol, 0.1 mg/mL BSA, 2 mM DTT; 25 C; 0.0125-409.6 nM protein
Details: tags: N-His6-TEV cleaved; C-SNAP kept, Cy3B-labelled; label: tethered on chip by stalled RNA polymerase

Row | Binder | Kd
1 | ACAAACAUACACUAUAUUACAAAC (ssRNA) [Id_ii_S3_P3E.4_K3.3_C3.2_[C-2A]_H3.3_A3.1_F3.1_T3.2_[A10T]] | 556 nM
2 | ACAAACUUACACUAUAUUACAAAC (ssRNA) [Id_ii_S3_P3E.4_K3.3_C3.2_[C-2T]_H3.3_A3.1_F3.1_T3.2_[A10T]] | 959 nM
3 | UCUCUUUGUAGUAUUUUCUCUU (ssRNA) [Ib_S1_P5E.1_K5.1_C5.1_H5.1_A5.1_[T5G]_F5.1_[A10T]_T5.1] | 101 nM
4 | ACAAACCAUAUAUAUAACACAAAC (ssRNA) [Id_ii_S3_P3E.3_K3.2_C3.2_[T-1A]_H3.2_A3.1_F3.1_T3.2_[T9A]_[A10C]] | 724 nM
5 | ACAAACCUUAUAUAUAACACAAAC (ssRNA) [Id_ii_S3_P3E.3_K3.2_C3.2_H3.2_A3.1_F3.1_T3.2_[T9A]_[A10C]] | 513 nM
6 | ACAAACCGACACUAUAAAACAAAC (ssRNA) [Id_ii_S3_P3E.4_K3.3_C3.2_[T-1G]_H3.3_A3.1_F3.1_T3.2_[T9A]] | > 2300 nM
7 | ACAAACGGACACUAUACUACAAAC (ssRNA) [Id_ii_S3_P3E.4_K3.3_C3.2_[C-2G]_[T-1G]_H3.3_A3.1_F3.1_T3.2_[T9C]_[A10T]] | 2160 nM
8 | ACAAACCAUAUAUAUAAGACAAAC (ssRNA) [Id_ii_S3_P3E.3_K3.2_C3.2_[T-1A]_H3.2_A3.1_F3.1_T3.2_[T9A]_[A10G]] | 546 nM
9 | ACAAACGCACACUAUAGGACAAAC (ssRNA) [Id_ii_S3_P3E.4_K3.3_C3.2_[C-2G]_[T-1C]_H3.3_A3.1_F3.1_T3.2_[T9G]_[A10G]] | > 2300 nM
10 | ACAAACGGACACUAUAAAACAAAC (ssRNA) [Id_ii_S3_P3E.4_K3.3_C3.2_[C-2G]_[T-1G]_H3.3_A3.1_F3.1_T3.2_[T9A]] | > 2300 nM
11 | ACAAACUGACACUAUAGAACAAAC (ssRNA) [Id_ii_S3_P3E.4_K3.3_C3.2_[C-2T]_[T-1G]_H3.3_A3.1_F3.1_T3.2_[T9G]] | 1880 nM
12 | ACAAACUGACACUAUACUACAAAC (ssRNA) [Id_ii_S3_P3E.4_K3.3_C3.2_[C-2T]_[T-1G]_H3.3_A3.1_F3.1_T3.2_[T9C]_[A10T]] | > 2300 nM
13 | ACAAACAUACACUAUACCACAAAC (ssRNA) [Id_ii_S3_P3E.4_K3.3_C3.2_[C-2A]_H3.3_A3.1_F3.1_T3.2_[T9C]_[A10C]] | 1760 nM
14 | ACAAACCUUAUAUAUACCACAAAC (ssRNA) [Id_ii_S3_P3E.3_K3.2_C3.2_H3.2_A3.1_F3.1_T3.2_[T9C]_[A10C]] | 845 nM
15 | UCUCUUUGUAGUAUUAUCUCUU (ssRNA) [Ia_S1_P5E.1_K5.1_C5.1_H5.1_A5.1_[T5G]_F5.1_T5.1] | 30 nM
16 | ACAAACUAACACUAUAUUACAAAC (ssRNA) [Id_ii_S3_P3E.4_K3.3_C3.2_[C-2T]_[T-1A]_H3.3_A3.1_F3.1_T3.2_[A10T]] | 2240 nM

Row | Binder | Kd
17 | ACAAACGAACACUAUACCACAAAC (ssRNA) [Id_ii_S3_P3E.4_K3.3_C3.2_[C-2G]_[T-1A]_H3.3_A3.1_F3.1_T3.2_[T9C]_[A10C]] | > 2300 nM
18 | ACAAACGAACACUAUAGCACAAAC (ssRNA) [Id_ii_S3_P3E.4_K3.3_C3.2_[C-2G]_[T-1A]_H3.3_A3.1_F3.1_T3.2_[T9G]_[A10C]] | > 2300 nM
19 | ACAAACGGACACUAUAUUACAAAC (ssRNA) [Id_ii_S3_P3E.4_K3.3_C3.2_[C-2G]_[T-1G]_H3.3_A3.1_F3.1_T3.2_[A10T]] | 1380 nM
20 | ACAAACCGACACUAUACAACAAAC (ssRNA) [Id_ii_S3_P3E.4_K3.3_C3.2_[T-1G]_H3.3_A3.1_F3.1_T3.2_[T9C]] | > 2300 nM
21 | ACAAACACACACUAUAUCACAAAC (ssRNA) [Id_ii_S3_P3E.4_K3.3_C3.2_[C-2A]_[T-1C]_H3.3_A3.1_F3.1_T3.2_[A10C]] | > 2300 nM
22 | UCUCUUUGUACUAUUUUCUCUU (ssRNA) [Ib_S1_P5E.1_K5.1_C5.1_H5.1_A5.1_[T5C]_F5.1_[A10T]_T5.1] | 10.2 nM
23 | ACAAACAUACACUAUAACACAAAC (ssRNA) [Id_ii_S3_P3E.4_K3.3_C3.2_[C-2A]_H3.3_A3.1_F3.1_T3.2_[T9A]_[A10C]] | 1680 nM
24 | ACAAACACACACUAUAUUACAAAC (ssRNA) [Id_ii_S3_P3E.4_K3.3_C3.2_[C-2A]_[T-1C]_H3.3_A3.1_F3.1_T3.2_[A10T]] | 1650 nM
25 | ACAAACGAACACUAUAACACAAAC (ssRNA) [Id_ii_S3_P3E.4_K3.3_C3.2_[C-2G]_[T-1A]_H3.3_A3.1_F3.1_T3.2_[T9A]_[A10C]] | > 2300 nM
26 | UCUCUUUGUACUAUUCUCUCUU (ssRNA) [Ib_S1_P5E.1_K5.1_C5.1_H5.1_A5.1_[T5C]_F5.1_[A10C]_T5.1] | 12.5 nM
27 | ACAAACUGACACUAUACCACAAAC (ssRNA) [Id_ii_S3_P3E.4_K3.3_C3.2_[C-2T]_[T-1G]_H3.3_A3.1_F3.1_T3.2_[T9C]_[A10C]] | > 2300 nM
28 | ACAAACGCACACUAUACAACAAAC (ssRNA) [Id_ii_S3_P3E.4_K3.3_C3.2_[C-2G]_[T-1C]_H3.3_A3.1_F3.1_T3.2_[T9C]] | > 2300 nM
29 | ACAAACAGACACUAUAUUACAAAC (ssRNA) [Id_ii_S3_P3E.4_K3.3_C3.2_[C-2A]_[T-1G]_H3.3_A3.1_F3.1_T3.2_[A10T]] | 2200 nM
30 | ACAAACUGACACUAUAUUACAAAC (ssRNA) [Id_ii_S3_P3E.4_K3.3_C3.2_[C-2T]_[T-1G]_H3.3_A3.1_F3.1_T3.2_[A10T]] | 1340 nM
31 | ACAAACAUACACUAUAGAACAAAC (ssRNA) [Id_ii_S3_P3E.4_K3.3_C3.2_[C-2A]_H3.3_A3.1_F3.1_T3.2_[T9G]] | 1310 nM
